The target in the assay is T1, TNF receptors on L929 cells (mouse, UniProt P25118 30-454).
T1 construct: whole, on cells; The result text says 'TNF receptors'; the staining used an anti-TNFR1 antibody; also called cell surface receptors; TNFR1
T1 sequence (looked up): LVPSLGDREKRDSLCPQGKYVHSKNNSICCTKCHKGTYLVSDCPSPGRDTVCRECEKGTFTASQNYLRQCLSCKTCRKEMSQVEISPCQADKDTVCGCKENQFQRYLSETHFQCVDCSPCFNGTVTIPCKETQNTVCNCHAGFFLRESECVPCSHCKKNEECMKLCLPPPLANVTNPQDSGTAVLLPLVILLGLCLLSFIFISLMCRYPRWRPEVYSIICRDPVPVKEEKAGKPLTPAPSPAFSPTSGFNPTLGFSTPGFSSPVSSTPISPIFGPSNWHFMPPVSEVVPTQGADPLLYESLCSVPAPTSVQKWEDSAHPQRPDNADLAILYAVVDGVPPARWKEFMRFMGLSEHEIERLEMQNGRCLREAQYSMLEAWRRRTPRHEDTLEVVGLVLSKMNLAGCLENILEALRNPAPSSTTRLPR
Put plainly: confocal immunofluorescence on L929 cells. As to the method: The cells were fixed with 4% paraformaldehyde (PBS formulation) were for 10 minutes, blocked with phosphate buffer containing 0.5% BSA and 0.1% cold water fish gelatin for 15 minutes, and then incubated with rabbit anti-TNFR1 antibody (Abeam) for 1 hour. The cells were washed with PBS and then incubated with the relevant secondary antibody coupled to Alexa Fluor 488 or Alexa Fluor 568 (Invitrogen). Then the sample washed with PBS was mounted with Gelvatol/DABCO (Sigma-Aldrich). DNA was counterstained with DAPI (Sigma-Aldrich). All samples were analyzed by fluorescence microscopy at 60× using Nikon Eclipse 80i. Images were taken with NIS-Elements AR3.0 software using Hamamatsu camera.

Here are results for one molecule from patent publication US20190144517A1 (SHANGHAI JW INFLINHIX, published 2019).

B1: monoclonal antibody 244-12 (antibody, mouse IgG2b, kappa, V domains shown)
VH: QIQLVQSGPELKKPGETVKISCKASGYTFTNYGMNWVKQAPGKGLKWMGWINTYTGEPTYADDFKGRFAFSLETSANTAYLQINNLRNEGMATYFCARHYRYAWFPYWGQGTLVTVSA
VL: DIQMTQSPASLSASVGETVTITCRASGNIHIYLAWYQQKQGKSPQLLVYNAKTLADGVPSRFSGSGSGTQYSLKINSLQPEDFGSYYCQHFWSIPWTFGGGTKLEIKR
notes: It was detected with an anti-mouse IgG secondary antibody
As to B1, the binding result is listed as “no binding (tested: 2 µg/ml)”.
